One data set has as its target B7-H6 (Homo sapiens) (UniProt Q68D85). To be noted: cited from earlier work.
Data set [1] concerns the target B7-H6 C212S extracellular portion, wild-type N-glycosylation (expressed in HEK293T) (UniProt Q68D85). The experiment in a line: ITC; NKp30_Stalk monomer. The note with it: domain or fragment.
Data set [2] has the same target. The experiment in a line: ITC; NKp30_Stalk oligomer. To be noted: domain or fragment.
Data set [3] has the same target. Nature of the data set: ITC; NKp30_Stalk monomer. To be noted: domain or fragment. The source holds these as a separate data set.
In data set [4] the target is B7-H6 C212S extracellular portion, uniform simple N-glycans (expressed in HEK293S GnTI^−) (UniProt Q68D85). Nature of the data set: SPR; NKp30_Stalk monomer. The note with it: domain or fragment.
Data set [5] shares this target. The experiment in a line: SPR; NKp30_Stalk oligomer. To be noted: domain or fragment.
Data set [6] has as its target NKp30_Stalk, uniform simple N-glycans (expressed in HEK293S GnTI^−) (human) (UniProt O14931). Nature of the data set: SPR; NKp30_Stalk monomer. To be noted: domain or fragment.
Data set [7] addresses B7-H6 C212S extracellular portion, uniform simple N-glycans (expressed in HEK293S GnTI^−) (UniProt Q68D85). Nature of the data set: SPR. To be noted: domain or fragment.
Data set [8] deals with T1, B7-H6 C212S extracellular portion, uniform simple N-glycans (expressed in HEK293S GnTI^−) (UniProt Q68D85 25-245, C212S, uniform Asn-GlcNAc2Man5 N-glycans; biotinylated with EZ-Link NHS-Biotin for SPR; labelled with ATTO 488-NHS ester for the two-wavelength sedimentation analysis).
T1 sequence: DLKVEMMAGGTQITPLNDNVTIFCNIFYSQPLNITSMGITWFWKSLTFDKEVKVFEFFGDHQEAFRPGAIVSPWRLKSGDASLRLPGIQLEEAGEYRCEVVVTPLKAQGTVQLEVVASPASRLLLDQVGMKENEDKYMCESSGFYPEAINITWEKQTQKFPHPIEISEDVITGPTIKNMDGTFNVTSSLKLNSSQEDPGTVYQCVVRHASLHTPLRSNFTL
The experiment in a line: SPR.

Data set [9] concerns the target T2, B7-H6 C212S extracellular portion, wild-type N-glycosylation (expressed in HEK293T) (UniProt Q68D85 25-245, C212S, complex wild-type N-glycans (HEK293T); biotinylated with EZ-Link NHS-Biotin for SPR).
T2 sequence: T1 sequence
Nature of the data set: ITC.

A short description of data set [10]: sedimentation velocity AUC. The note with it: glycan changed form; control: NKp30_Stalk from HEK293S GnTI− (uniform glycans).
The target of data set [11] is NKp30_Stalk, wild-type N-glycosylation (expressed in HEK293T) (human) (UniProt O14931). Nature of the data set: AUC; sedimentation velocity of the oligomeric fraction of NKp30_Stalk (HEK293T) with ATTO488-labelled B7-H6, read at 280 nm (total) and 480 nm (B7-H6 only), 20 °C.

Turning to NKp30 (from UniProt O14931), in the data set with B7-H6 (Homo sapiens), the Kd was 1000 nM.

For the molecule “NKp30_Stalk, uniform simple N-glycans (expressed in HEK293S GnTI^−) (from UniProt O14931 19-135)”, the Kd came out at 960 nM in data set [1]; 1000 nM in [2]; 970 nM in data set [3]; 370 nM in data set [4]; 70 nM in data set [5].

As for “NKp30_Stalk, wild-type N-glycosylation (expressed in HEK293T) (from UniProt O14931 19-135)”, the equilibrium dissociation constant (Kd) in data set [2] was found to be 830 nM; in data set [3], 590 nM; in data set [4], 380 nM; in data set [5], 90 nM.

On to “B7-H6 C212S extracellular portion, deglycosylated with endoglycosidase Endo F1 (from UniProt Q68D85 25-245)”, for which, in [6], the Kd was 380 nM.

The molecule “B7-H6 C212S extracellular portion, wild-type N-glycosylation (expressed in HEK293T) (from UniProt Q68D85 25-245)” displayed a Kd in [6] of 370 nM.

Consider “NKp30_Stalk, deglycosylated with endoglycosidase Endo F1 (from UniProt O14931 19-135)”, for which the Kd in data set [7] came out at 350 nM.

B1: NKp30_LBD (Ligand Binding Domain), uniform simple N-glycans (expressed in HEK293S GnTI^−) (domain or fragment)
chain: LWVSQPPEIRTLEGSSAFLPCSFNASQGRLAIGSVTWFRDEVVPGKEVRNGTPEFRGRLAPLASSRFLHDHQAELHIRDVRGHDASIYVCRVEVLGLGVGTGNGTRLVVEKE
modifications: uniform Asn-GlcNAc2Man5 N-glycans; GlcNAc modelled at Asn42 in the crystal structure
Regarding B1, the results for the dissociation constant Kd in data set [8] and in data set [9] were 1010 nM and 890 nM, respectively.

B2: NKp30_LBD (Ligand Binding Domain), wild-type N-glycosylation (expressed in HEK293T) (domain or fragment)
chain: B1 chain
modifications: complex wild-type N-glycans (HEK293T)
Regarding B2, the equilibrium dissociation constant (Kd) in data set [8] came to 910 nM; in [9], 770 nM.

B3: NKp30_LBD (Ligand Binding Domain), deglycosylated with endoglycosidase Endo F1 (domain or fragment)
chain: B1 chain
modifications: a single GlcNAc unit left at each N-glycosylation site after Endo F1
For the molecule B3, the Kd in data set [8] turned out to be 690 nM; in data set [9], 550 nM.

B4: NKp30: HEK293T wild-type glycosylation (protein)
parent chain: MAWMLLLILIMVHPGSCALWVSQPPEIRTLEGSSAFLPCSFNASQGRLAIGSVTWFRDEVVPGKEVRNGTPEFRGRLAPLASSRFLHDHQAELHIRDVRGHDASIYVCRVEVLGLGVGTGNGTRLVVEKEHPQLGAGTVLLLRAGFYAVSFLSVAVGSTVYYQGKCLTWKGPRRQLPAVVPAPLPPPCGSSAHLLPPVPGG
With B4, the oligomerisation entry in data set [10] is “changes, one dominant species of ca 8 units and with secondary species of ca 16 units”.

B5: B7-H6 C212S extracellular portion, uniform simple N-glycans (expressed in HEK293S GnTI^−) (domain or fragment)
chain: T1 sequence
modifications: uniform Asn-GlcNAc2Man5 N-glycans; biotinylated with EZ-Link NHS-Biotin for SPR; labelled with ATTO 488-NHS ester for the two-wavelength sedimentation analysis
In [11], B5 gave a percent of NKp30 binding sites occupied by B7-H6 in the oligomers of 60%. Also, the stoichiometry N in [11] (scale: B7-H6 molecules per eight NKp30 molecules) was 5.

These data come from PMC7409301, “Natural Killer Cell Activation Receptor NKp30 Oligomerization Depends on Its N-Glycosylation” (Cancers, 2020).
